Experimental data as given in patent US20240116985A1 (published 2024).
Starred links: 1 amine or outer side, 2 acyl side, 3 side chain; linkers in the order of their positions; H or OH if unused. Positions of bridges follow the written chain, without caps; N, C: chain ends. Non-standard residues stand in square brackets, D forms with d. Primed or numbered codes have the meaning given here. No end group written: not given here. PyrS2″ = (S)-3-amino-1-((pent-4-en-1-yloxy)carbonyl)pyrrolidine-3-carboxylic acid (stapling residue), C=CCCCOC(=O)N1CC[C@@](N[*:1])(C(=O)[*:2])C1; (Tfp)GA = [Tfp]GA: (S)-2-amino-3-((carboxymethyl)(3,3,3-trifluoropropyl)amino)propanoic acid, O=C([C@H](CN(CCC(F)(F)F)CC(=O)[*:3])N[*:1])[*:2]; B5(4) = 2,2-bis(4-pentenyl)glycine = 2-amino-2-(pent-4-en-1-yl)hept-6-enoic acid (stitching residue), C=CCCCC(CCCC=C)(N[*:1])C(=O)[*:2]; TfeGA = (S)-2-amino-3-((carboxymethyl)(2,2,2-trifluoroethyl)amino)propanoic acid, O=C([C@H](CN(CC(=O)[*:3])CC(F)(F)F)N[*:1])[*:2]; PyrS2 = (S)-3-amino-1-((pent-4-en-1-yloxy)carbonyl)pyrrolidine-3-carboxylic acid, C=CCCCOC(=O)N1CC[C@@](N[*:1])(C(=O)[*:2])C1; (Et)GA = [Et]GA: (S)-2-amino-3-((carboxymethyl)(ethyl)amino)propanoic acid, CCN(CC(=O)[*:3])C[C@H](N[*:1])C(=O)[*:2]; B5(13) = 2-amino-2-(pent-4-en-1-yl)hept-6-enoic acid (two alkene chains), C=CCCCC(CCCC=C)(N[*:1])C(=O)[*:2]; B5(3) = 2,2-bis(4-pentenyl)glycine (stitching residue), C=CCCCC(CCCC=C)(N[*:1])C(=O)[*:2]; Phe(2-Cl) = N[C@@H](Cc1ccccc1Cl)C(=O)O; Phe(2-OMe) = COc1ccccc1C[C@H](N)C(=O)O; 1Nal = N[C@@H](Cc1cccc2ccccc12)C(=O)O; 2Nal = N[C@@H](Cc1ccc2ccccc2c1)C(=O)O; Phe(2-Me) = Cc1ccccc1C[C@H](N)C(=O)O; Bta = N[C@@H](Cc1csc2ccccc12)C(=O)O; Lys(iPr) = CC(C)NCCCC[C@H](N)C(=O)O; αAllylPro = C=CC[C@@]1(C(=O)O)CCCN1; tBuAla = CC(C)(C)C[C@H](N)C(=O)O; 3Thi = N[C@@H](Cc1ccsc1)C(=O)O; Cha = N[C@@H](CC1CCCCC1)C(=O)O; S8 = C=CCCCCCC[C@](C)(N)C(=O)O; Thr(ol) = C[C@@H](O)[C@H](N)CO; hLeu = CC(C)CC[C@H](N)C(=O)O

What was measured:
Assay in all cases: cell-based or functional assay
[1] = molecular target: T1, B-cat-Halo (UniProt P35222 1-781)
T1 sequence (looked up): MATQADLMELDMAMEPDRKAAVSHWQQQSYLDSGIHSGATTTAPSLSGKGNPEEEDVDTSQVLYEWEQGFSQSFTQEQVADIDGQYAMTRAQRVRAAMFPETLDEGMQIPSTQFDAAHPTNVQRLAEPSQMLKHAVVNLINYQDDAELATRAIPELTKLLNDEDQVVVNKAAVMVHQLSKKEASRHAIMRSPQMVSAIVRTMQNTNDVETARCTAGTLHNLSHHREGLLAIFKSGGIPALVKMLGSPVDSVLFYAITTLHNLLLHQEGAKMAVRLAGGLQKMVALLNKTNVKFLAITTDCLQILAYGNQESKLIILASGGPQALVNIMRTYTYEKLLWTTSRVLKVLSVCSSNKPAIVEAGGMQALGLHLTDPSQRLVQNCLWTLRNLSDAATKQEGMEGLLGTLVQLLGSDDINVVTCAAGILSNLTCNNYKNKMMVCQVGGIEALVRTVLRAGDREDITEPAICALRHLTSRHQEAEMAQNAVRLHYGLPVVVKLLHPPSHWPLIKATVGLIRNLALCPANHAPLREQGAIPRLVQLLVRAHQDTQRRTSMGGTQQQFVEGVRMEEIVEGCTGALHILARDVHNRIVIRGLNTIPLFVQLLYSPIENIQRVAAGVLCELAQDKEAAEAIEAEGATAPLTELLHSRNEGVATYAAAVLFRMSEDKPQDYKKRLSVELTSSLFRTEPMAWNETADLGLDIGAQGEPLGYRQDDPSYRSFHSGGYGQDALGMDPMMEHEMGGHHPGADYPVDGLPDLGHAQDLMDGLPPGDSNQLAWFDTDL

[2] = molecular target: T2, B-cat-Halo (UniProt P35222 1-781); remark: listed apart in the source
T2 sequence (looked up): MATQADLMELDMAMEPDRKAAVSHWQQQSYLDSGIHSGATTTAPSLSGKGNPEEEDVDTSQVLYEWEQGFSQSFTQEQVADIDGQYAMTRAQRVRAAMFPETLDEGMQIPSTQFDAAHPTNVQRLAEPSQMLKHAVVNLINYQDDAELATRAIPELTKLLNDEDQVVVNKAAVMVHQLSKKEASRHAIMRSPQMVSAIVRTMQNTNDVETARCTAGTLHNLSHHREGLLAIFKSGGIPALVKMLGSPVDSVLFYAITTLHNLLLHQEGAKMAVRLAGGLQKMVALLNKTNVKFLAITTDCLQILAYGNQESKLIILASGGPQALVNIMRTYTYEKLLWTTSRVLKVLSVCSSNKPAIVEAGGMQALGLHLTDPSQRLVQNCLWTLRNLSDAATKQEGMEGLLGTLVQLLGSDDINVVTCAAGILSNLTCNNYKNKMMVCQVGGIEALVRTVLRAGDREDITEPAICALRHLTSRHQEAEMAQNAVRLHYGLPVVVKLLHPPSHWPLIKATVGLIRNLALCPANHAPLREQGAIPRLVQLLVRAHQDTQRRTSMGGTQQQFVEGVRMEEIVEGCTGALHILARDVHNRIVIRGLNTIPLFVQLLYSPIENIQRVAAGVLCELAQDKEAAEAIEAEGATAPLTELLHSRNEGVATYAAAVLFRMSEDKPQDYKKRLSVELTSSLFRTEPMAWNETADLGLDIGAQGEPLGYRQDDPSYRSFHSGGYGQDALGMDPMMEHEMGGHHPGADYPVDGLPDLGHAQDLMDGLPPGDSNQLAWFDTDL

[3] = molecular target: T3, B-cat-Halo (UniProt P35222 1-781); remark: listed apart in the source
T3 sequence (looked up): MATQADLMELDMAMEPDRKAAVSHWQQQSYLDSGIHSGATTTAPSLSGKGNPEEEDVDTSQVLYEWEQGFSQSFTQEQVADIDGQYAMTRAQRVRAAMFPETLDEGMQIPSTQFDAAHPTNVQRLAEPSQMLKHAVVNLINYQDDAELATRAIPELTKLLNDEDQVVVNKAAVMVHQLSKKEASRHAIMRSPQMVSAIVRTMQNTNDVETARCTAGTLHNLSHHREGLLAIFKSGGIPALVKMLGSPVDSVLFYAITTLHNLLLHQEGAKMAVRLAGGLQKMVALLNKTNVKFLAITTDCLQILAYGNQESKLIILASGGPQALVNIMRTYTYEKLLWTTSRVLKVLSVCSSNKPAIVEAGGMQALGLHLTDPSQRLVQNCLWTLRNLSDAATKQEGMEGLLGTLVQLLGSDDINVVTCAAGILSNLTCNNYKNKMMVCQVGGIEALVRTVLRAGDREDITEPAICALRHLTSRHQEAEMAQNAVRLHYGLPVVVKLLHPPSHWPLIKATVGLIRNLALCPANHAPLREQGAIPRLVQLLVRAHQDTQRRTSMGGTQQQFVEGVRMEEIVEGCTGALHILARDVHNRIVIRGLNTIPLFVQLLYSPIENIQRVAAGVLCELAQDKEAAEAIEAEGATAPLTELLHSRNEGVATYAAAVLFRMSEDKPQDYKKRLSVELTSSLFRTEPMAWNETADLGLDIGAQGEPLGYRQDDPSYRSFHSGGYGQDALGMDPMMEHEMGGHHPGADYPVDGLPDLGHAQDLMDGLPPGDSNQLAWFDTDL

B1: I-1615 (peptide)
peptide: Ac-[αAllylPro]D[tBuAla][B5(3)]D[TfeGA]AAFT[PyrS2″][Phe(2-Cl)][Bta][Lys(iPr)]-NH2
modifications: staple 1-4, 4-11
- NanoBRET Abs IC50 [1]: 8 µM

B2: I-782 (peptide)
peptide: Ac-[αAllylPro]D[tBuAla][B5(13)]DDAAFN[PyrS2][Phe(2-Me)][Bta]H-NH2
modifications: staple 1-4, 4-11
- NanoBRET Abs IC50 [2]: 12.2 µM

B3: I-793 (peptide)
peptide: Ac-[αAllylPro]D[tBuAla][B5(3)]DDAAFN[PyrS2][Bta][Bta]H-NH2
modifications: staple 1-4, 4-11
- NanoBRET Abs IC50 [2]: > 20 µM

B4: I-786 (peptide)
peptide: Ac-[αAllylPro]D[tBuAla][B5(3)]DEAAFN[PyrS2][3Thi][Bta]-NH2
modifications: staple 1-4, 4-11
- NanoBRET Abs IC50 [2]: 29.3 µM

B5: I-1313 (peptide)
peptide: Ac-[αAllylPro]D[tBuAla][B5(4)]DD[Lys(iPr)]AFL[PyrS2″][Phe(2-Cl)][Bta][Thr(ol)]
modifications: staple 1-4, 4-11
- NanoBRET Abs IC50 [3]: 51.4 µM

B6: I-790 (peptide)
peptide: Ac-[αAllylPro]D[tBuAla][B5(3)]DDAAFN[PyrS2][3Thi][2Nal]H-NH2
modifications: staple 1-4, 4-11
- NanoBRET Abs IC50 [2]: > 20 µM

B7: I-1315 (peptide)
peptide: Ac-[αAllylPro]D[tBuAla][B5(4)]DDAAFL[PyrS2″][2cbmF][Bta]Q-NH2
modifications: staple 1-4, 4-11
- NanoBRET Abs IC50 [3]: 7.2 µM

B8: I-1625 (peptide)
peptide: Ac-[αAllylPro]D[tBuAla][B5(3)]D[(Tfp)GA]AAFN[S8][3Thi][Bta]Q-NH2
modifications: staple 1-4, 4-11
- NanoBRET Abs IC50 [1]: 29.3 µM

B9: I-1627 (peptide)
peptide: Ac-[αAllylPro]D[tBuAla][B5(3)]D[(Et)GA]AAFN[S8][3Thi][Bta]Q-NH2
modifications: staple 1-4, 4-11; also: earlier eluting staple isomer
- NanoBRET Abs IC50 [1]: > 20 µM

B10: I-792 (peptide)
peptide: Ac-[αAllylPro]D[tBuAla][B5(3)]DDAAFN[PyrS2][3Thi]WH-NH2
modifications: staple 1-4, 4-11
- NanoBRET Abs IC50 [2]: > 20 µM

B11: I-1312 (peptide)
peptide: Ac-[αAllylPro]D[Cha][B5(4)]DDAAFT[PyrS2″][Phe(2-Cl)][Bta][Thr(ol)]
modifications: staple 1-4, 4-11
- NanoBRET Abs IC50 [3]: 16.1 µM

B12: I-783 (peptide)
peptide: Ac-[αAllylPro]D[tBuAla][B5(13)]DDAAFN[PyrS2][Phe(2-Cl)][Bta]Q-NH2
modifications: staple 1-4, 4-11
- NanoBRET Abs IC50 [2]: 6.2 µM

B13: I-789 (peptide)
peptide: Ac-[αAllylPro]D[tBuAla][B5(3)]DDAAFN[PyrS2][3Thi][1Nal]H-NH2
modifications: staple 1-4, 4-11
- NanoBRET Abs IC50 [2]: > 20 µM

B14: I-1328 (peptide)
peptide: [αAllylPro]D[tBuAla][B5(4)]DDAAFF[PyrS2″][Phe(2-OMe)][Bta]Q-NH2
modifications: staple 1-4, 4-11
- NanoBRET Abs IC50 [3]: 5.4 µM

B15: I-781 (peptide)
peptide: Ac-[αAllylPro]D[tBuAla][B5(13)]DDAAFN[PyrS2][Phe(2-OMe)][Bta]H-NH2
modifications: staple 1-4, 4-11
- NanoBRET Abs IC50 [2]: 31 µM

B16: I-788 (peptide)
peptide: Ac-[αAllylPro]D[hLeu][B5(3)]DDAAFN[PyrS2][3Thi][Bta]H-NH2
modifications: staple 1-4, 4-11
- NanoBRET Abs IC50 [2]: 21.6 µM

B17: I-784 (peptide)
peptide: Ac-[αAllylPro]D[tBuAla][B5(3)]DDAAFN[PyrS2][Phe(2-Cl)][Bta]H-NH2
modifications: staple 1-4, 4-11
- NanoBRET Abs IC50 [2]: 14.5 µM
